These results are taken from publication doi:10.1101/2025.09.30.679617 (bioRxiv, 2025).

Ends that are not written are not given here.

For this test, the target named is T1, PfCSP junctional peptide 21 (Plasmodium falciparum, strain not …, also: biotinylated, position not given here).
T1 chain: NPDPNANPNVDPNAN

B1: Run6_Seq1 (antibody, V domains shown)
VH: QVQLVQSGAEVRKPGASVKVSCKASGYTFTRYAIHWVRQAPGQRLEWMGWIKAGNGNTRYSQKFQGRVSIIRDTSASTVYMDLSGLRSEDTAVYYCALLTVITPDDAFDIWGQGTMVTVSS
VL: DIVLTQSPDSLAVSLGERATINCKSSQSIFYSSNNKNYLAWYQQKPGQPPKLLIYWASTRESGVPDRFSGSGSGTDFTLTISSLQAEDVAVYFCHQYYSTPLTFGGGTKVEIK
For B1, the binding result is given as “binds”.

B2: Run6_Seq2 (antibody, V domains shown)
VH: QVQLVQSGAEVRKPGASVKVSCKASGYTFTRYAIHWVRQAPGQRLEWMGWIKAGNGNTRYSQNFQGRVSIIRDTSASTAYMDLSGLRSEDTAVYYCALLTVITPDDAFDIWGQGTMVTVSS
VL: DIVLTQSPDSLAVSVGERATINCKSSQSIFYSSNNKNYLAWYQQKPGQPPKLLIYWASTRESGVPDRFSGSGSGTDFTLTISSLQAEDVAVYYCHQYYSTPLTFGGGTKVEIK
With B2, the binding result is reported as “binds”.

B3: SFR1 (antibody, V domains shown)
VH: QVHLVQSGAEVKKPGASVKVSCKASGYTFSRYAIHWVRQAPGQRLEWMGWIKGGNGDTRYSQKFQDRVTITRDTSASTVYMDLSSLRSEDTAVYYCALLTVIRKDDTFDVWGQGTMVTVSS
VL: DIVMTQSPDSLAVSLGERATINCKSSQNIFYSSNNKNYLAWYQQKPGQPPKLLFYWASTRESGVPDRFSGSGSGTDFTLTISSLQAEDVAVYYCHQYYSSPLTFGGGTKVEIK
On to B3, for which the binding result was “binds”.

B4: SFR2 (antibody, V domains shown)
VH: QVHLVQSGAEVKKPGASVKVSCKASGYTFSRYAIHWVRQAPGQRLEWMGWIKGGNGDTRYSQKFQDRVTITRDTSASTVYMELSSLRSEDTAVYFCALLTVIRKDDTFDVWGQGTMVTVSS
VL: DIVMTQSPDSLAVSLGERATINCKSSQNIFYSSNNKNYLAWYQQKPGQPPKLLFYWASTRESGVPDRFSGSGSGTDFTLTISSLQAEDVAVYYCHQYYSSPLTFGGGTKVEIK
Regarding B4, the binding result is “binds”.

B5: SFR4 (antibody, V domains shown)
VH: QVHLVQSGAEVKKPGASVKVSCKASGYTFSTYAIHWVRQAPGQRLEWMGWIKGGNGDTRYSQKFQGRVTITRDTSASTVYMELSSLRSEDTAVYYCALLTVIRLDETFDVWGQGTMVTVSS
VL: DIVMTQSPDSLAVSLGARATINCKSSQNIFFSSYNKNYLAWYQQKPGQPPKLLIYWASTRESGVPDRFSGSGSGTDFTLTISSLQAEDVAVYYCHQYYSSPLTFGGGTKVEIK
Regarding B5, the binding result was “binds”.

B6: SFR6 (antibody, V domains shown)
VH: QVHLVQSGAEVKKPGASVKVSCKASGYTFSSYAIHWVRQAPGQRLDWMGWIKGGNGDTRYSETFQDRVTISRDTSATTVYMELSSLRSEDTAMYFCALLTVIRRDDTFDIWGQGTMVTVSS
VL: DIVLTQSPDSLAVSLGERATINCKSSQNIFFNSNKKNYLAWYQQKPRQPPKLLFYWASTRESGVPDRFSGSGSGTDFTLTISSLQAEDVAVYYCHQFYSTPLTFGGGTKVEIK
Turning to B6, the binding result is on record as “binds”.

B7: Run3_Seq2 (antibody, V domains shown)
VH: QVQLVQSGAEVRKPGASVKVSCKASGYTFTTYAIHWVRQAPGQRLEWMGWIKGGNGDTRYSQKFQGRLTITRDTFASTAYMELSSLRSEDTAVYYCALLTVVTPDDTFDIWGQGTMVTVSS
VL: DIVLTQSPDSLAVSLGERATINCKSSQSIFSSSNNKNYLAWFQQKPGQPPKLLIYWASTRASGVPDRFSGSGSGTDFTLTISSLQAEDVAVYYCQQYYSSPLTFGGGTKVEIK
On to B7, for which the binding result is “binds”.

B8: Run1_Seq1 (antibody, V domains shown)
VH: QVQLVQSGTEVKKPGASVKVSCKASGYTFTSYAIHWVRQAPGQRLEWMGWIKVGNGNTRYSQKFQGRVTITRDTSASTAYMELSSLRSEDTAVYYCALLTVLTADDAFDFWGQGTMVTVSS
VL: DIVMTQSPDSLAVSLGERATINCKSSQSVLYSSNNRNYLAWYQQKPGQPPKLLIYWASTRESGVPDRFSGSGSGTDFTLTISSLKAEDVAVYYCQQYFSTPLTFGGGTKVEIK
Take B8: the binding result is on record as “binds”.

B9: Run4_Seq1 (antibody, V domains shown)
VH: QVQLVQSGTEVKKPGASVKVSCKASGYTFTSYAIHWVRQAPGQRLEWMGWIKAGNGNTRYSQKFQGRVTITRDTSASTVYMELSSLRSEDTAVYYCALLTVITPDDAFDVWGQGTMVTVSS
VL: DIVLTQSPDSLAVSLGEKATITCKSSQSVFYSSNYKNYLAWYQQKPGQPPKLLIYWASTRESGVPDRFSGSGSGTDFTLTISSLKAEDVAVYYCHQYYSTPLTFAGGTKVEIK
As for B9, the binding result is reported as “binds”.

B10: Run3_Seq1 (antibody, V domains shown)
VH: QVQLVQSGAEVRKPGASVKVSCKASGYTFTTYAIHWVRQAPGQRLEWMGWIKADNGNTRYSQKFQGRVTITRDTFASTAYMELSSLRSEDTAVYYCALLTVVTPDDTFDIWGQGTMVTVSS
VL: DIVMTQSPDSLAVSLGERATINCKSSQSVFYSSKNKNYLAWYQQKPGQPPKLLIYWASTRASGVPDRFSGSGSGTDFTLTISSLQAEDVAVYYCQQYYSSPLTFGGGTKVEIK
In the case of B10, the binding result is reported as “binds”.

B11: Run2_Seq2 (antibody, V domains shown)
VH: QVQLVQSGAEVKKPGASVKVSCKASGYTFTNYAIHWVRQAPGQRLEWMGWIKAGNGNTRYSQKFQDRVTLTRDTSASTAFMELSSLRSEDTAVYYCALLTVVTPDDAFDIWGQGTLVTVSS
VL: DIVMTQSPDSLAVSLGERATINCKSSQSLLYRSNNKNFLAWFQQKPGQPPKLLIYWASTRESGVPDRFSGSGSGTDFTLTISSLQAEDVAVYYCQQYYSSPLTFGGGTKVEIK
With B11, the binding result is on record as “binds”.

B12: Run7_Seq2 (antibody, V domains shown)
VH: QVQLVQSGAEVKKPGASVKVSCKASGYTFTSYAMHWVRQAPGQRLEWLGWIKAGNGNTRYSQRFQGRVTITGDTSASTAYMELRSLRSEDTAVYYCALLTVITPDDAFDIWGQGTMVTVSS
VL: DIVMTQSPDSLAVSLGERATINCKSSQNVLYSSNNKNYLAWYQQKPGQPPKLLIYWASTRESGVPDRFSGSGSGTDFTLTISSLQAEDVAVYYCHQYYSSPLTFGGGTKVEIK
Take B12: the binding result is “binds”.

B13: Run2_Seq1 (antibody, V domains shown)
VH: QVQLVQSGAEVKKPGASVKVSCKASGYTFTSYAIHWVRQAPGQRLEWMGWIKAGNGNTRYSQKFQGRVTLTRDTSASTAYMELNSLRSEDTAVYYCALLTVVTPDDVFDIWGQGTMVTVSS
VL: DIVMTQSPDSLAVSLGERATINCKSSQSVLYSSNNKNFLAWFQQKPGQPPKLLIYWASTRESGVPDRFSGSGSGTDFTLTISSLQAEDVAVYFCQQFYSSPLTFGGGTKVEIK
B13: the binding result is “binds”.

B14: Run5_Seq2 (antibody, V domains shown)
VH: QVQLVQSGAEVKKPGASVKVSCKASGYTFTSYAIHWVRQAPGQRLEWMGWIKAGNGNTRYSQKFQGRITITRDTSASTAYMELSSLRSEDTAVYYCALLTVITPDYAFDIWGQGTMVTVSS
VL: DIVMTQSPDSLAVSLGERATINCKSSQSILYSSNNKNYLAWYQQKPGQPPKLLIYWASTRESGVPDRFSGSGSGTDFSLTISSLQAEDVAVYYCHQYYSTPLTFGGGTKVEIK
As for B14, the binding result is reported as “binds”.

B15: Run7_Seq1 (antibody, V domains shown)
VH: QVQLVQSGAEVKKPGASVKVSCKASGYTFTKYAMHWVRQAPGQRLEWLGWIKAGNGNTRYSQRFQDRVTITRDTSASTAYMELSSLRSEDTAVYYCALLTVITPDDAFDIWGQGTMVTVSS
VL: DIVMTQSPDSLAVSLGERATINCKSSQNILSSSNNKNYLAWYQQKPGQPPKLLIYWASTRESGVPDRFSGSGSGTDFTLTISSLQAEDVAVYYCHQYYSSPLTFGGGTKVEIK
As to B15, the binding result is given as “binds”.

B16: Run1_Seq2 (antibody, V domains shown)
VH: QVQLVQSGTEVKKPGASVKVSCKASGYTFTSYAIHWVRQAPGQRLEWMGWIKVGNGNTRYSQKFQGRVTITRDTSANTAYMELSSLRSEDTAVYYCALLTVLTPDDAFDFWGQGTMVTVSS
VL: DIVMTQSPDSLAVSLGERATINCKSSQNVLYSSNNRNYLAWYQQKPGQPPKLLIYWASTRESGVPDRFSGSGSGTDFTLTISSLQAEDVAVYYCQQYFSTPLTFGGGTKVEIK
As to B16, the binding result was “binds”.

B17: Run4_Seq2 (antibody, V domains shown)
VH: QVQLVQSGTEVKKPGASVKVSCKASGYTFTSYAVHWVRQAPGQRLEWMGWIKAGNGNTRYSQKFQGRVTITRDTSASTVYMELSSLRSEDTAVYYCALLTVITPDDAFDVWGQGTMVTVSS
VL: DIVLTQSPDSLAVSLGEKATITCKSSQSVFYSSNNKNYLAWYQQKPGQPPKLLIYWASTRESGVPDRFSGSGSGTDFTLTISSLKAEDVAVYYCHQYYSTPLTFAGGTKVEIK
With B17, the binding result is reported as “binds”.

B18: Run5_Seq1 (antibody, V domains shown)
VH: QVQLVQSGAEVKKPGASVKVSCKASGYTFTSYAIHWVRQAPGQRLEWMGWIKAGKGNTRYSQKFQGRITITRDTSASTVYMELNSLRSEDTAVYYCALLTVITPDYAFDIWGQGTMVTVSS
VL: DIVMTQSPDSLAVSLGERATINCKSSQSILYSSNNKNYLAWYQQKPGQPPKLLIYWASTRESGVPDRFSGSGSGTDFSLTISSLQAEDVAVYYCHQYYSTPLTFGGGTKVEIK
With B18, the binding result is recorded as “binds”.
